Legend:
[1] = tested on: T1, H-Gln-Ala-Ala-Ala-Ala-NH2
T1 sequence: QAAAA

H-Gln-Ala-Ala-NH2 = tested on: T2, H-Gln-Ala-Ala-NH2
T2 sequence: QAA

[2] = tested on: T3, H-Gln-Ala-Ala-Ser-Ala-Ala-NH2
T3 sequence: QAASAA

H-Gln-Ala-NH2 = tested on: T4, H-Gln-Ala-NH2
T4 sequence: QA

H-Gln-Ala-OH = tested on: T5, H-Gln-Ala-OH
T5 sequence: QA

H-Gln-Arg-Gly-Ile-NH2 = tested on: T6, H-Gln-Arg-Gly-Ile-NH2
T6 sequence: QRGI

H-Gln-Arg-Tyr-Phe-NH2 = tested on: T7, H-Gln-Arg-Tyr-Phe-NH2
T7 sequence: QRYF

H-Gln-Asn-Gly-Ile-NH2 = tested on: T8, H-Gln-Asn-Gly-Ile-NH2
T8 sequence: QNGI

H-Gln-Gln-OH = tested on: T9, H-Gln-Gln-OH
T9 sequence: QQ

H-Gln-Gln-Tyr-Phe-NH2 = tested on: T10, H-Gln-Gln-Tyr-Phe-NH2
T10 sequence: QQYF

H-Gln-Glu-Ala-Ala-NH2 = tested on: T11, H-Gln-Glu-Ala-Ala-NH2
T11 sequence: QEAA

H-Gln-Glu-Ala-Phe-NH2 = tested on: T12, H-Gln-Glu-Ala-Phe-NH2
T12 sequence: QEAF

H-Gln-Glu-Asp-Leu-NH2 = tested on: T13, H-Gln-Glu-Asp-Leu-NH2
T13 sequence: QEDL

H-Gln-Glu-OH = tested on: T14, H-Gln-Glu-OH
T14 sequence: QE

H-Gln-Glu-Tyr-Ala-NH2 = tested on: T15, H-Gln-Glu-Tyr-Ala-NH2
T15 sequence: QEYA

H-Gln-Glu-Tyr-NH2 = tested on: T16, H-Gln-Glu-Tyr-NH2
T16 sequence: QEY

H-Gln-Glu-Tyr-Phe-NH2 = tested on: T17, H-Gln-Glu-Tyr-Phe-NH2
T17 sequence: QEYF

H-Gln-Gly-OH = tested on: T18, H-Gln-Gly-OH
T18 sequence: QG

H-Gln-Gly-Pro-OH = tested on: T19, H-Gln-Gly-Pro-OH
T19 sequence: QGP

H-Gln-His-Tyr-Phe-NH2 = tested on: T20, H-Gln-His-Tyr-Phe-NH2
T20 sequence: QHYF

H-Gln-Lys-Arg-Leu-NH2 = tested on: T21, H-Gln-Lys-Arg-Leu-NH2
T21 sequence: QKRL

H-Gln-Phe-Ala-NH2 = tested on: T22, H-Gln-Phe-Ala-NH2
T22 sequence: QFA

H-Gln-Pro-Tyr-Phe-NH2 = tested on: T23, H-Gln-Pro-Tyr-Phe-NH2
T23 sequence: QPYF

H-Gln-Ser-Tyr-Phe-NH2 = tested on: T24, H-Gln-Ser-Tyr-Phe-NH2
T24 sequence: QSYF

H-Gln-Trp-Ala-NH2 = tested on: T25, H-Gln-Trp-Ala-NH2
T25 sequence: QWA

H-Gln-Tyr-Ala-OH = tested on: T26, H-Gln-Tyr-Ala-OH
T26 sequence: QYA

[3] = tested on: T27, H-Gln-cyclo(Nε-Lys-Arg-Pro-Ala-Gly-Phe)
T27 sequence: QKRPAGF

[4] = tested on: T28, H-βhomoGln-Phe-Lys-Arg-Leu-Ala-NH2
T28 sequence: QFKRLA

[Gln^1]-FPP = tested on: T29, [Gln^1]-FPP
T29 sequence: QEP

[Gln^1]-Gastrin = tested on: T30, [Gln^1]-Gastrin
T30 sequence: QGPWLEEEEEAYGWMDF

[Gln^1]-GnRH = tested on: T31, [Gln^1]-GnRH
T31 sequence: QHWSYGLRPG

[Gln^3]-glucagon(3-29) = [Gln^3]-glucagon(3-29) (UniProt P01275)
[5] = tested on: T32, [Gln^5]-substance P(5-11)
T32 sequence: QQFFGLM

Sequence of [Gln^3]-glucagon(3-29) (P01275 whole entry, looked up, tested part not stated): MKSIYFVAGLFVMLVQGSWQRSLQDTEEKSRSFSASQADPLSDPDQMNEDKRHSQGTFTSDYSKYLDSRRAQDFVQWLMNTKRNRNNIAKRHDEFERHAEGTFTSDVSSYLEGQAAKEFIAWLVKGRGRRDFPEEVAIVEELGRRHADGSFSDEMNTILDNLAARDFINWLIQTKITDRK

QC from papaya latex (Carica papaya glutaminyl cyclase)
KM [1]: 197 µM
KM (H-Gln-Ala-Ala-NH2): 164 µM
KM [2]: 216 µM
KM (H-Gln-Ala-NH2): 212 µM
KM (H-Gln-Ala-OH): 158 µM
KM (0.05 M Tricine-NaOH, pH 8.0) (H-Gln-Ala-OH): 0.137 mM
KM (0.05 M Tricine-NaOH, pH 8.0, 0.5 M KCl) (H-Gln-Ala-OH): 0.143 mM
KM (H-Gln-Arg-Gly-Ile-NH2): 123 µM
KM (0.05 M Tricine-NaOH, pH 8.0) (H-Gln-Arg-Gly-Ile-NH2): 0.106 mM
KM (0.05 M Tricine-NaOH, pH 8.0, 0.5 M KCl) (H-Gln-Arg-Gly-Ile-NH2): 0.065 mM
KM (H-Gln-Arg-Tyr-Phe-NH2): 124 µM
KM (H-Gln-Asn-Gly-Ile-NH2): 153 µM
KM (H-Gln-Gln-OH): 44 µM
KM (H-Gln-Gln-Tyr-Phe-NH2): 45 µM
KM (H-Gln-Glu-Ala-Ala-NH2): 102 µM
KM (H-Gln-Glu-Ala-Phe-NH2): 81 µM
KM (H-Gln-Glu-Asp-Leu-NH2): 107 µM
KM (0.05 M Tricine-NaOH, pH 8.0) (H-Gln-Glu-Asp-Leu-NH2): 0.109 mM
KM (0.05 M Tricine-NaOH, pH 8.0, 0.5 M KCl) (H-Gln-Glu-Asp-Leu-NH2): 0.094 mM
KM (H-Gln-Glu-OH): 106 µM
KM (0.05 M Tricine-NaOH, pH 8.0) (H-Gln-Glu-OH): 0.098 mM
KM (0.05 M Tricine-NaOH, pH 8.0, 0.5 M KCl) (H-Gln-Glu-OH): 0.094 mM
KM (H-Gln-Glu-Tyr-Ala-NH2): 113 µM
KM (H-Gln-Glu-Tyr-NH2): 103 µM
KM (H-Gln-Glu-Tyr-Phe-NH2): 100 µM
KM (H-Gln-Gly-OH): 641 µM
KM (H-Gln-Gly-Pro-OH): 333 µM
KM (H-Gln-His-Tyr-Phe-NH2): 92 µM
KM (H-Gln-Lys-Arg-Leu-NH2): 118 µM
KM (0.05 M Tricine-NaOH, pH 8.0) (H-Gln-Lys-Arg-Leu-NH2): 0.102 mM
KM (0.05 M Tricine-NaOH, pH 8.0, 0.5 M KCl) (H-Gln-Lys-Arg-Leu-NH2): 0.053 mM
KM (H-Gln-Phe-Ala-NH2): 111 µM
KM (H-Gln-Pro-Tyr-Phe-NH2): 149 µM
KM (H-Gln-Ser-Tyr-Phe-NH2): 135 µM
KM (H-Gln-Trp-Ala-NH2): 78 µM
KM (0.05 M Tricine-NaOH, pH 8.0) (H-Gln-Trp-Ala-NH2): 0.079 mM
KM (0.05 M Tricine-NaOH, pH 8.0, 0.5 M KCl) (H-Gln-Trp-Ala-NH2): 0.072 mM
KM (H-Gln-Tyr-Ala-OH): 63 µM
KM [3]: KM-values of 240±14 µM and 133±5 µM for human and papaya QC, respectively
KM [4]: KM=3.1±0.3 mM
KM ([Gln^1]-FPP): 232 µM
KM ([Gln^1]-Gastrin): 34 µM
KM ([Gln^1]-GnRH): 169 µM
KM ([Gln^1]-Neurotensin): 40 µM
substrate conversion (kcat/KM column) ([Gln^3]-glucagon(3-29)): *
substrate conversion (kcat/KM column) [5]: *

Source: patent publication US7732162
